Measured values from article PMC5575849 (Developmental cell, 2017).

Molecular target: the molecule itself
Experiment: single-cell single-molecule pull-down

B1: mNG::AraD (mNG::3xFlag::AraD) (enzyme, E. coli, UniProt P08203 1-231, looked up)
chain: MLEDLKRQVLEANLALPKHNLVTLTWGNVSAVDRERGVFVIKPSGVDYSVMTADDMVVVSIETGEVVEGTKKPSSDTPTHRLLYQAFPSIGGIVHTHSRHATIWAQAGQSIPATGTTHADYFYGTIPCTRKMTDAEINGEYEWETGNVIVETFEKQGIDAAQMPGVLVHSHGPFAWGKNAEDAVHNAIVLEEVAYMGIFCRQLAPQLPDMQQTLLDKHYLRKHGAKAYYGQ
  stoichiometry N: 4
